Source: a protein production outcome set (Wang et al. 2014)

Experiment: label from the status in PepcDB records

Row | Sequence | protein production
1 | MAESGVSVGSESLQLYEAQFFGFTPETCTLRVRDAFRDSLNHILVAVESVFVKRLCPGRDPPAELRLTARESTQKLRQFLQERFEIMFQRMKGMLIDRMLSIPQNVLLPEDQMHQKYPEGKEELTKLQESIAKLLQAYEAEVCSKQALLAELEEQKETQKQLDEVLRWIEELRVSWRREGMGNVQDSVRHMIETVGQLQDVVGKINKQNSALDEV | failed
2 | AQSILEKADEIRFPQDSFQVNVAIRTAAPDHAEDLYRYQVLSKGNENSIVMITEPASERGQAILMKGRDLWVFMPSVSQPIRLSLSQRLTGQVANGDIARANFTGDYHPQLLRNESIDDEDYYVLELTGIDRSVTYQKVLLWVNQSNFRPYKAEFYSVSGRLLKTSRYENFDNILGEMRPTRIIMEDALKSGEVSVLDYSDMKLRDLPDKIFTKDYLKR | not failed
3 | MEALRLGFSPCPNDTFIFYALVHGRVESPVPLEPVLEDVETLNRWALEGRLPLTKLSYAAYAQVRDRYVALRSGGALGRGVGPLVVARGPLQALEGLRVAVPGRHTTAYFLLSLYAQGFVPVEVRYDRILPMVAQGEVEAGLIIHESRFTYPRYGLVQVVDLGAWWEERTGLPLPLGAILARRDLGEGLIRALDEAVRRSVAYALAHPEEALDYMRAHAQELSDEVIWAHVHTYVNAFSLDVGEEGERAVARLFAEAEARGLAAPSPRPLFV | not failed
